We go through two molecules from patent US20230036060A1, “DUAL-CONTROLLED DRUG AND PHOTOACTIVATABLE SYSTEM FOR SPATIOTEMPORAL CONTROL OF CELL THERAPY” (THE REGENTS OF THE UNIVERSITY OF CALIFORNIA, priority 2019, published 2023).

In test [1] the test system is EGFP Reporter HEK293T cells. Briefly: Cre-loxP recombination in EGFP Reporter HEK293T cells, % EGFP+ by flow cytometry normalized to Cre groups. Format: cell-based. As to conditions: Dark, Ambient, Light (5 W/m^2, 7.5 s per min, 24 h); n=5. The text has this: FIG. 2A is a schematic representation of the EGFP Reporter genetic construct before and after Cre-loxP recombination; the hEF1α promoter drives mCherry expression.
FIG. 3E graphically illustrates the number of recombined cells after recombination in TamPA-Cre-nH1^+ EGFP Reporter HEK293T cells subjected (Light) or not (Ambient, Dark) to Protocol B (n=3) of FIG. 3C; reporter is untransfected EGFP Reporter HEK293T cell line (n=3), blue light stimulation started and flow cytometry measurements taken 24 h and 72 h post-transfection, respectively; percentage of recombined HEK293T cells (normalized to maximal recombination)=100%*(% of EGFP^+ cells)/(mean % of EGFP^+ cells in corresponding Cre groups). […]
To compare the two photoactivatable split-Cre systems, EGFP Reporter HEK293T cells were or were not (Reporter) transiently transfected with either PA-Cre-C, PA-Cre-M, or Cre constructs (Fig. S1A-D). […] The percentage of EGFP^+ recombined cells in each cell group was determined by flow cytometry 24 h later. […]
(In general: A flow cytometer gives signals particle by particle.)

Test [2] concerns CD38+ Toledo Target cells. Briefly: Activation of myc-α-CD38 Receptor Jurkat T cells upon binding to CD38+ Toledo Target cells. In kind it is cell-based. As to conditions: Jurkat T cells stably expressing the receptor. The text has this:
FIG. 12D graphically illustrates representative histograms from flow cytometry showing that α-CD19-CAR-EGFP^+ Jurkat T cells both (I) bind to and (II) are activated by CD19^+ Toledo Target cells, while myc-α-CD38-Receptor^+ Jurkat T cells (III) bind to but (IV) are not activated by CD38^+ Toledo Target cells;
The TamPA-Cre system was next applied to induce CAR expression in the physiologically relevant Jurkat T cell line. […] Likewise, Jurkat T cells stably expressing myc-α-CD38 Receptor were not activated upon binding to CD38^+ Toledo Target cells, as expected (Fig. S6D).

B1: NLS-pMag-CreC: nucleus-localized C-terminal split-Cre protein half, SEQ ID NO: 1 (protein)
chain: PKKKRKVGGHTLYAPGGYDIMGYLRQIRNRPNPQVELGPVDTSCALILCDLKQKDTPIVYASEAFLYMTGYSNAEVLGRNCRFLQSPDGMVKPKSTRKYVDSNTINTMRKAIDRNAEVQVEVVNFKKNGQRFVNFLTMIPVRDETGEYRYSMGFQCETEGTNRKWFPAEPEDVRDYLLYLQARGLAVKTIQQHLGQLNMLHRRSGLPRPSDSNAVSLVMRRIRKENVDAGERAKQALAFERTDFDQVRSLMENSDRCQDIRNLAFLGIAYNTLLRIAEIARIRVKDISRTDGGRMLIHIGRTKTLVSTAGVEKALSLGVTKLVERWISVSGVADDPNNYLFCRVRKNGVAAPSATSQLSTRALEGIFEATHRLIYGAKDDSGQRYLAWSGHSARVGAARDMARAGVSIPEIMQAGGWTNVNIVMNYIRNLDSETGAMVRLLEDGD
modifications: Synthetic exemplary nucleic acid sequence for NLS-pMag-CreC
B1: the “Cre-loxP recombination by one split-Cre half alone versus Reporter” value in test [1] was “no significant difference”.

B2: myc-α-CD38 Receptor: c-myc-tagged α-CD38 anchoring receptor expressed in Jurkat T cells, SEQ ID NO: 8 (protein)
chain: MEFGLSWLFLVAILKGVQCSEQKLISEEDLDIQLTQSSSSFSVSLGDRVTITCKASEDIYNRLAWYQQKPGNAPRLLISGATSLETGVPSRFSGSGSGKDYTLSITSLQTEDVATYYCQQYWSTPTFGGGTKLEIKRADAAPTVSIFPPSGGGGSGGGGSGGGGSGGGGSQVQLKQSGPSLVQPSQRLSITCTVSGFSLISYGVHWVRQSPGKGLEWLGVIWRGGSTDYNAAFMSRLSITKDNSKSQVFFKMNSLQADDTAIYFCAKTLITTGYAMDYWGQGTSVTVSSAAAIEVMYPPPYLDNEKSNGTIIHVKGKHLCPSPLFPGPSKPFWVLVVVGGVLACYSLLVTVAFIIFWVRSKRS
modifications: Synthetic exemplary nucleic acid sequence for exemplary myc-alpha-CD38-Receptor
For B2, the “T cell activation upon binding to Target cells” value in test [2] is listed as “not activated”.
